Data published in patent US20240016952A1 (published 2024).
Residue numbers refer to the chain shown, from its start. Numbers in names are those of the source. Values belong to the binder of their own block, whether it stands above or below them.

How the values were obtained:
[1] = target: T1, cynomolgus monkey transferrin receptor 1 (cTfR1) (cynomolgus monkey (Macaca fascicularis), UniProt Q5RDH6 89-760 (Pongo abelii entry), limits assumed); experiment: ELISA, cyno TfR1, Fab, day 0 of thermal stability test
T1 construct: Recombinant cynomolgus TfR1; also called cyTfR1; cyno TfR1
T1 chain: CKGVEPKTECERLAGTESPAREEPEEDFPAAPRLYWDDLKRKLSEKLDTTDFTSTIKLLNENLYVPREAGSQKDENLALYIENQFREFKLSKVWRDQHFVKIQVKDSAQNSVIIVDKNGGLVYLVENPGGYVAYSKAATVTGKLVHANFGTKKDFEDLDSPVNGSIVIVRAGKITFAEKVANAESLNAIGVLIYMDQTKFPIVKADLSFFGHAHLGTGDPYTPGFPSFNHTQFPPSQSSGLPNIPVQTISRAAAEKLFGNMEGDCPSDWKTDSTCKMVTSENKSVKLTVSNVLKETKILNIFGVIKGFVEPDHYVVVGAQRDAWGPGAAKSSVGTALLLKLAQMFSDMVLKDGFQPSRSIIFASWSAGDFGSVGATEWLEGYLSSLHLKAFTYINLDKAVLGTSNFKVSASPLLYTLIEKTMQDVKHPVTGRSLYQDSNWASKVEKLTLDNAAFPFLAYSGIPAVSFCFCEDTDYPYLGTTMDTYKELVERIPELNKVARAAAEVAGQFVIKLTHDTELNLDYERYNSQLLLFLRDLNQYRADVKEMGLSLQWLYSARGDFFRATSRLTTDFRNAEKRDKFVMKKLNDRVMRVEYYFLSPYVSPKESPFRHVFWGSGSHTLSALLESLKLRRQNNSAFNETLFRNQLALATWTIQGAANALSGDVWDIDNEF

[2] = target: T1, cynomolgus monkey transferrin receptor …; experiment: ELISA, cyno TfR1, Fab after 9 days at 40 C
[3] = target: T1, cynomolgus monkey transferrin receptor …; experiment: ELISA on plate-coated cyno TfR1, unconjugated Fab
[4] = target: T1, cynomolgus monkey transferrin receptor …; experiment: surface plasmon resonance
[5] = target: T2, human transferrin receptor 1 (hTfR1) (human, UniProt P02786 89-760); experiment: Carterra LSA SPR, IgG captured on anti-IgG chip, hTfR1 injected, 25 C, 1:1 fit
T2 construct: Recombinant human TfR1; also called huTfR1; Human TfR1

[6] = target: T1, cynomolgus monkey transferrin receptor …; experiment: average KD, antibody alone; method not given
[7] = target: T2, human transferrin receptor 1 (hTfR1); experiment: average KD, antibody alone; method not given
[8] = target: T3, TfR1 (species not stated; Biacore analyses of Table 14 and Table 16) (Homo sapiens (Human), UniProt P02786 89-760); experiment: Biacore kinetic analysis; design: unit not given here
T3 construct: also called target antigen

Binding affinity cyno TfR1 d 0 [1]: 2.2 nM
Binding affinity cyno TfR1 d 9 [2]: 16.4 nM
Fab binding affinity ELISA [3]: 2.2 nM
Kd [4]: 5180 pM
koff [4]: 0.000476 s⁻¹
kon [4]: 91900 M⁻¹ s⁻¹
B1: humanized anti-TfR Fab 3M12 VH4/Vk3 (Fab, V domains shown)
VH: QVQLQESGPGLVKPSQTLSLTCTVTGYSITSGYYWNWIRQPPGKGLEWIGYITFDGANNYNPSLKNRVSISRDTSKNQFSLKLSSVTAEDTATYYCTRSSYDYDVLDYWGQGTTVTVSS
VL: DIQMTQSPSSLSASVGDRVTITCRASQDISNFLNWYQQKPGQPVKLLIYYTSRLHSGVPSRFSGSGSGTDFTLTISSLQPEDFATYYCQQGHTLPYTFGQGTKLEIKR

Kd [5]: 283 pM
Kd [6]: 1000 pM
Kd [7]: 800 pM
B2: 15G11 (control anti-TfR1 antibody) (antibody, V domains shown)
VH: QVQLQQPGAELVKPGASVKLSCKASGYTFTSYWMHWVKQRPGQGLEWIGEINPTNGRTNYIEKFKSKATLTVDKSSSTAYMQLSSLTSEDSAVYYCARGTRAYHYWGQGTSVTVSS
VL: DIQMTQSPASLSVSVGETVTITCRASDNLYSNLAWYQQKQGKSPQLLVYDATNLADGVPSRFSGSGSGTQYSLKINSLQSEDFGTYYCQHFWGTPLTFGAGTKLELK

Binding affinity cyno TfR1 d 0 [1]: 398 nM
Binding affinity cyno TfR1 d 9 [2]: 248 nM
Fab binding affinity ELISA [3]: 398 nM
koff [8]: 65.6
B3: humanized anti-TfR Fab 3A4 VH3 (N54S)/Vk4 (Fab, V domains shown)
VH: EVQLVQSGSELKKPGASVKVSCTASGFNIKDDYMYWVRQPPGKGLEWIGWIDPESGDTEYASKFQDRVTVTADTSTNTAYMELSSLRSEDTAVYYCTLWLRRGLDYWGQGTLVTVSS
VL: DIVMTQSPLSLPVTPGEPASISCRSSKSLLHSNGYTYLFWFQQRPGQSPRLLIYRMSNLASGVPDRFSGSGSGTDFTLKISRVEAEDVGVYYCMQHLEYPFTFGGGTKVEIKR

Binding affinity cyno TfR1 d 0 [1]: 122 nM
Binding affinity cyno TfR1 d 9 [2]: 878 nM
Fab binding affinity ELISA [3]: 122 nM
koff [8]: 115
B4: humanized anti-TfR Fab 3A4 VH3/Vk4 (Fab, V domains shown)
VH: B3 VH with S55N
VL: B3 VL
